The text below walks through data of patent US20240270821A1, “GIP/GLP1/GCG TRI-RECEPTOR AGONISTS AND USES THEREOF” (priority 2023, published 2024).

Experiment in all cases: cell-based or functional assay
In assay [1] the target is human GLP-1R (SNAP-GLP-1R expressed in HEK293 cells) (human) (UniProt P43220).
The target of assay [2] is human glucagon receptor (human) (UniProt P47871).
Assay [3] has as its target T1, human GIP receptor (human) (UniProt P48546).
T1 sequence (looked up): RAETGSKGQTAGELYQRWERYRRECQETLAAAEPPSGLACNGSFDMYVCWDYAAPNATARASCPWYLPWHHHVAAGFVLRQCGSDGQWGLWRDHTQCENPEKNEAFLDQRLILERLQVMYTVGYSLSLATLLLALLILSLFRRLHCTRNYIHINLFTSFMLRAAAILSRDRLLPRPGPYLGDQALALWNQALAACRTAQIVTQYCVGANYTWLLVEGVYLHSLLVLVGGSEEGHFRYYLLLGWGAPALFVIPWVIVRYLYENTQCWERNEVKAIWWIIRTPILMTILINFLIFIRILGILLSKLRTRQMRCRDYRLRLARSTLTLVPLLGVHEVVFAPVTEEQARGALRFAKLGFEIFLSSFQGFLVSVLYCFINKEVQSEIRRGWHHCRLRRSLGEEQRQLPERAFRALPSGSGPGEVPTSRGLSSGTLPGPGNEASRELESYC

A further assay has as its target hGLP-1R (Homo sapiens, UniProt P43220).

Chain of hGLP-1R (P43220 24-463): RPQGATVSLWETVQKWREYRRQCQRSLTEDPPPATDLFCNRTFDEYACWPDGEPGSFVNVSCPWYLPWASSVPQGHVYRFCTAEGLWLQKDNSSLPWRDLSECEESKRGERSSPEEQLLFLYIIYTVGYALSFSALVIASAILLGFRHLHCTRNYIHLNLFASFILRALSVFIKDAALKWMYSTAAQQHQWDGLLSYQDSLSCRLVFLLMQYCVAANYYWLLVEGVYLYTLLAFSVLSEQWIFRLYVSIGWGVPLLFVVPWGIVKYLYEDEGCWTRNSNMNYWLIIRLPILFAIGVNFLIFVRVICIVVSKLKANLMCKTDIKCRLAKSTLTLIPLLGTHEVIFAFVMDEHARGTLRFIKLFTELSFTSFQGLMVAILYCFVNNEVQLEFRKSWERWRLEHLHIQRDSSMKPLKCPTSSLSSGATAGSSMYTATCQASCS
Chain of human GLP-1R (SNAP-GLP-1R expressed in HEK293 cells) (human) (P43220 24-463): as above
Chain of human glucagon receptor (human) (P47871 26-477): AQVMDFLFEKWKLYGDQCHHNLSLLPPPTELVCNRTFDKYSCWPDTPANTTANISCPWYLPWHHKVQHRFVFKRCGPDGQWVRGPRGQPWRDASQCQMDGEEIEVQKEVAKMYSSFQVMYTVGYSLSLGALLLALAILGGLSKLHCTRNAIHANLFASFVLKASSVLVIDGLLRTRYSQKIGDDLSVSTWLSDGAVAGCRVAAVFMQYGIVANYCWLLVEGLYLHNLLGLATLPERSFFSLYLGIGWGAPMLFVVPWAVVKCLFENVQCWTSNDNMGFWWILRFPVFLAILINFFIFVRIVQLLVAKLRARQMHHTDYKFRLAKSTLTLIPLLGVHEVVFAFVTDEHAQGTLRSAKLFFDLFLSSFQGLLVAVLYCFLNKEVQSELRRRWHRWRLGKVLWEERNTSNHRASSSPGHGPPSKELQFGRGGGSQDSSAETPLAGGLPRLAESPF

B1: Example 118 (peptide)
chain: YXQGTFTSDFSXXLDKKAQXAFIEYLLEGGPSSGAPPPGES
modifications: synthetic construct; SITE 2: note = 2-Aminoisobutyric Acid; SITE 12: note = L-ornithine; SITE 13: note = alpha-methyl-leucine; SITE 17: note = Lysine is chemically modified through conjugation of the epsilon-amino group of the Lysine side chain with (2-[2-(2-Amino-ethoxy)-ethoxy]-acetyl)2-(gamma-Glu)
B1: in assay [1], the GLP1R Internalization EC50 came out at 82.3 nM and the Internalization % TOP worked out at 46.4%. In addition, in assay [2], the Relative cAMP EC50 was 7.02 nM and the cAMP Rel EC50, nM (in the presence of 1% HSA) worked out at 2460 nM. In assay [3], the Relative cAMP EC50 was 0.43 nM and the cAMP Rel EC50, nM (in the presence of 1% HSA) is 63.4 nM. In the assay with hGLP-1R, the Relative cAMP EC50 was found to be 6.03 nM and the cAMP Rel EC50, nM (in the presence of 1% HSA) amounted to 1450 nM.

B2: Example 111 (peptide)
chain: YXQGTFTSDFSXXLDKKAQXAFIEYLLEXGPSSGAPPPSGE
modifications: synthetic construct; SITE 2: note = 2-Aminoisobutyric Acid; SITE 12: note = L-ornithine; SITE 13: note = alpha-methyl-leucine; SITE 17: note = Lysine is chemically modified through conjugation of the epsilon-amino group of the Lysine side chain with (2-[2-(2-Amino-ethoxy)-ethoxy]-acetyl)2-(gamma-Glu)
B2 returned a GLP1R Internalization EC50 in assay [1] of 49.1 nM. In addition, the Internalization % TOP in assay [1] came to 46.4%. Further, the figures for the Relative cAMP EC50 (in assay [2]; in assay [3]; with hGLP-1R) were 4.25 nM, 0.0888 nM and 5.06 nM, respectively. Also, the results for the cAMP Rel EC50, nM (in the presence of 1% HSA) (in assay [2]; in assay [3]; with hGLP-1R) were 1260 nM, 10.4 nM and 878 nM, respectively.

B3: Example 110 (peptide)
chain: YXQGTFTSDFSXXLDKKAQXAFIEYLLEXGPSSGAPPPSGE
modifications: synthetic construct; SITE 2: note = 2-Aminoisobutyric Acid; SITE 12: note = L-ornithine; SITE 13: note = alpha-methyl-leucine; SITE 17: note = Lysine is chemically modified through conjugation of the epsilon-amino group of the Lysine side chain with (2-[2-(2-Amino-ethoxy)-ethoxy]-acetyl)-(gamma-Glu)
For B3, in assay [1], the GLP1R Internalization EC50 was 28.3 nM and the Internalization % TOP was determined as 42.5%. Further, in assay [2], the Relative cAMP EC50 worked out at 2.45 nM and the cAMP Rel EC50, nM (in the presence of 1% HSA) was determined as 627 nM. In assay [3], the Relative cAMP EC50 is 0.102 nM and the cAMP Rel EC50, nM (in the presence of 1% HSA) is 19.8 nM. Besides, in the assay with hGLP-1R, the Relative cAMP EC50 is 2.99 nM and the cAMP Rel EC50, nM (in the presence of 1% HSA) was 821 nM.

B4: Example 107 (peptide)
chain: YXQGTFTSDFSXXLDKKAQXAFIEYLLEGGPSSGAPPPSGE
modifications: synthetic construct; SITE 2: note = 2-Aminoisobutyric Acid; SITE 12: note = L-ornithine; SITE 13: note = alpha-methyl-leucine; SITE 17: note = Lysine is chemically modified through conjugation of the epsilon-amino group of the Lysine side chain with (2-[2-(2-Amino-ethoxy)-ethoxy]-acetyl)2-(gamma-Glu)
As for B4, in assay [1], the GLP1R Internalization EC50 amounted to 150 nM and the Internalization % TOP came out at 45.1%. Moreover, in assay [2], the Relative cAMP EC50 came to 10.8 nM and the cAMP Rel EC50, nM (in the presence of 1% HSA) turned out to be 1690 nM. In assay [3], the Relative cAMP EC50 is 0.426 nM and the cAMP Rel EC50, nM (in the presence of 1% HSA) was 61.3 nM. In the assay with hGLP-1R, the Relative cAMP EC50 came out at 8.5 nM and the cAMP Rel EC50, nM (in the presence of 1% HSA) was 1110 nM.

B5: Example 126 (peptide)
chain: YXQGTFTSDFSXXLDKKAQXAFIEWLLEGGHSSGAPPPEGS
modifications: synthetic construct; SITE 2: note = 2-Aminoisobutyric Acid; SITE 12: note = L-ornithine; SITE 13: note = alpha-methyl-leucine; SITE 17: note = Lysine is chemically modified through conjugation of the epsilon-amino group of the Lysine side chain with (2-[2-(2-Amino-ethoxy)-ethoxy]-acetyl)-(gamma-Glu)
On to B5, for which the GLP1R Internalization EC50 in assay [1] stood at 63.2 nM. This molecule came in with an Internalization % TOP in assay [1] of 38.8%. The Relative cAMP EC50 in assay [2] stood at 6.81 nM; in assay [3], 0.264 nM; in the assay with hGLP-1R, 3.97 nM. For the same molecule, the results for the cAMP Rel EC50, nM (in the presence of 1% HSA) (in assay [2]; in assay [3]; in the assay with hGLP-1R) were 1120 nM, 40.3 nM and 838 nM, respectively.

B6: Example 132 (peptide)
chain: YXQGTFTSDXSRXLDKKAQXAFIEYLLEXGESSGAPPPSGS
modifications: synthetic construct; SITE 2: note = 2-Aminoisobutyric Acid; SITE 10: note = 3-(4-Pyridyl)-L-alanine; SITE 13: note = alpha-methyl-leucine; SITE 17: note = Lysine is chemically modified through conjugation of the epsilon-amino group of the Lysine side chain with (2-[2-(2-Amino-ethoxy)-ethoxy]-acetyl)
In assay [1], B6 registered a GLP1R Internalization EC50 of 72.7 nM and an Internalization % TOP of 67.2%. In addition, in assay [2], the Relative cAMP EC50 was found to be 2.63 nM and the cAMP Rel EC50, nM (in the presence of 1% HSA) was found to be 632 nM. In addition, in assay [3], the Relative cAMP EC50 was determined as 0.21 nM and the cAMP Rel EC50, nM (in the presence of 1% HSA) is 25.9 nM. For the same molecule, in the assay with hGLP-1R, the Relative cAMP EC50 was 5.72 nM and the cAMP Rel EC50, nM (in the presence of 1% HSA) stood at 823 nM.

B7: Example 122 (peptide)
chain: YXQGTFTSDFSXXLDKKAQXAFIEWLLEGGHSSGAPPPSGE
modifications: synthetic construct; SITE 2: note = 2-Aminoisobutyric Acid; SITE 12: note = L-ornithine; SITE 13: note = alpha-methyl-leucine; SITE 17: note = Lysine is chemically modified through conjugation of the epsilon-amino group of the Lysine side chain with (2-[2-(2-Amino-ethoxy)-ethoxy]-acetyl)-(gamma-Glu)
Consider B7, for which, in assay [1], the GLP1R Internalization EC50 amounted to 57.4 nM and the Internalization % TOP was 43.7%. Further, in assay [2], the Relative cAMP EC50 was found to be 3.95 nM and the cAMP Rel EC50, nM (in the presence of 1% HSA) was 548 nM. In assay [3], the Relative cAMP EC50 was determined as 0.189 nM and the cAMP Rel EC50, nM (in the presence of 1% HSA) was found to be 32.6 nM. Also, in the assay with hGLP-1R, the Relative cAMP EC50 was 3.93 nM and the cAMP Rel EC50, nM (in the presence of 1% HSA) came to 468 nM.

B8: Example 129 (peptide)
chain: YXQGTFTSDFSXXLDKKAQXAFIEYLLEAGPSSGAPPPSGE
modifications: synthetic construct; SITE 2: note = 2-Aminoisobutyric Acid; SITE 12: note = L-ornithine; SITE 13: note = alpha-methyl-leucine; SITE 17: note = Lysine is chemically modified through conjugation of the epsilon-amino group of the Lysine side chain with (2-[2-(2-Amino-ethoxy)-ethoxy]-acetyl)-(gamma-Glu)
As to B8, the GLP1R Internalization EC50 in assay [1] worked out at 22.5 nM. The Internalization % TOP in assay [1] is 40.6%. Further, the Relative cAMP EC50 is 2.01 nM in assay [2], 0.134 nM in assay [3] and 1.87 nM with hGLP-1R. The cAMP Rel EC50, nM (in the presence of 1% HSA) came to 510 nM in assay [2], 24.3 nM in assay [3] and 284 nM with hGLP-1R.

B9: Example 113 (peptide)
chain: YXQGTFTSDXSRXLDKKAQXAFIEYLLAGGPSSGAPPPSGE
modifications: synthetic construct; SITE 2: note = 2-Aminoisobutyric Acid; SITE 10: note = 3-(4-Pyridyl)-L-alanine; SITE 13: note = alpha-methyl-leucine; SITE 17: note = Lysine is chemically modified through conjugation of the epsilon-amino group of the Lysine side chain with (2-[2-(2-Amino-ethoxy)-ethoxy]-acetyl)
In assay [1], B9 yielded a GLP1R Internalization EC50 of 39.5 nM and an Internalization % TOP of 64.6%. Besides, in assay [2], the Relative cAMP EC50 was 12 nM and the cAMP Rel EC50, nM (in the presence of 1% HSA) was 2090 nM. Further, in assay [3], the Relative cAMP EC50 was 0.24 nM and the cAMP Rel EC50, nM (in the presence of 1% HSA) stood at 32.3 nM. In the assay with hGLP-1R, the Relative cAMP EC50 was determined as 3.93 nM and the cAMP Rel EC50, nM (in the presence of 1% HSA) was 467 nM.
